# Laboratory results as given in patent US20240093191A1, “COMPOSITIONS AND METHODS FOR TREATING DISEASE ASSOCIATED WITH DUX4 OVEREXPRESSION” (RESEARCH INSTITUTE AT NATIONWIDE CHILDREN'S HOSPITAL, priority 2021, published 2024).
# B1: U6.mi405F: mi405 with one G at 5' end and 16 mer 3' flanking sequence with single CNNC motif (nucleic acid)
# DNA: ACGCCGCCATCTCTAGGCCCGCGCCGGCCCCCTCGCACAGACTTGTGGGAGAAGCTCGGCTACTCCCCTGCCCCGGTTAATTTGCATATAATATTTCCTAGTAACTATAGAGGCTTAATGTGCGATAAAAGACAGATAATCTGTTCTTTTTAATACTAGCTACATTTTACATGATAGGCTTGGATTTCTATAAGAGATACAAATACTAAATTATTATTTTAAAAAACAGCACAAAAGGAAACTCACCCTAACTGTAAAGTAATTGTGTGTTTTGAGACTATAAATATCCCTTGGAGAAAAGCCTTGTTTGCTCGAGTGAGCGATCCAGGATTCAGATCTGGTTTCTGTAAAGCCACAGATGGGAAACCAGATCTGAATCCTGGACTGCCTACTAGTAATTCTTCGATTCTGCTTTTTT
# B2: U6.mir-675: U6 promoter-driven mir-675 expression plasmid with 40 nt 5' and 47 nt 3' flanking sequences (nucleic acid)
# DNA: GACGCCGCCATCTCTAGGCCCGCGCCGGCCCCCTCGCACAGACTTGTGGGAGAAGCTCGGCTACTCCCCTGCCCCGGTTAATTTGCATATAATATTTCCTAGTAACTATAGAGGCTTAATGTGCGATAAAAGACAGATAATCTGTTCTTTTTAATACTAGCTACATTTTACATGATAGGCTTGGATTTCTATAAGAGATACAAATACTAAATTATTATTTTAAAAAACAGCACAAAAGGAAACTCACCCTAACTGTAAAGTAATTGTGTGTTTTGAGACTATAAATATCCCTTGGAGAAAAGCCTTGTTTGCGTTTAGTGAACCGTCAGATGGTACCGTTTAAACTCGAGCCCAGGGTCTGGTGCGGAGAGGGCCCACAGTGGACTTGGTGACGCTGTATGCCCTCACCGCTCAGCCCCTGGGACTAGAGCGGCCGCCACAGCGGGGAGATCCAGACATGATAAGATACATTTTTT
# B3: U6.mi405H: mi405 construct with altered flanking sequences (nucleic acid)
# DNA: ACGCCGCCATCTCTAGGCCCGCGCCGGCCCCCTCGCACAGACTTGTGGGAGAAGCTCGGCTACTCCCCTGCCCCGGTTAATTTGCATATAATATTTCCTAGTAACTATAGAGGCTTAATGTGCGATAAAAGACAGATAATCTGTTCTTTTTAATACTAGCTACATTTTACATGATAGGCTTGGATTTCTATAAGAGATACAAATACTAAATTATTATTTTAAAAAACAGCACAAAAGGAAACTCACCCTAACTGTAAAGTAATTGTGTGTTTTGAGACTATAAATATCCCTTGGAGAAAAGCCTTGTTTGACCGTTTAAACTCGAGTGAGCGATCCAGGATTCAGATCTGGTTTCTGTAAAGCCACAGATGGGAAACCAGATCTGAATCCTGGACTGCCTACTAGAGCGCACGCCAGTTTTTT
# B4: U6.mi405G: mi405 construct with altered flanking sequences (nucleic acid)
# DNA: ACGCCGCCATCTCTAGGCCCGCGCCGGCCCCCTCGCACAGACTTGTGGGAGAAGCTCGGCTACTCCCCTGCCCCGGTTAATTTGCATATAATATTTCCTAGTAACTATAGAGGCTTAATGTGCGATAAAAGACAGATAATCTGTTCTTTTTAATACTAGCTACATTTTACATGATAGGCTTGGATTTCTATAAGAGATACAAATACTAAATTATTATTTTAAAAAACAGCACAAAAGGAAACTCACCCTAACTGTAAAGTAATTGTGTGTTTTGAGACTATAAATATCCCTTGGAGAAAAGCCTTGTTTGACCGTTTAAACTCGAGTGAGCGATCCAGGATTCAGATCTGGTTTCTGTAAAGCCACAGATGGGAAACCAGATCTGAATCCTGGACTGCCTACTAGAGAATTCTTCGATTCTGCTTTTTT
# B5: H1.mir-675: commercially available H1 promoter mir-675 expression plasmid (SBI Biosciences) (nucleic acid)
# DNA: GAACGCTGACGTCATCAACCCGCTCCAAGGAATCGCGGGCCCAGTGTCACTAGGCGGGAACACCCAGCGCGCGTGCGCCCTGGCAGGAAGATGGCTGTGAGGGACAGGGGAGTGGCGCCCTGCAATATTTGCATGTCGCTATGTGTTCTGGGAAATCACCATAAACGTGAAATGTCTTTGGATTTGGGAATCTTATAAGTTCTGTATGAGACCACCCCCCAGGGTCTGGTGCGGAGAGGGCCCACAGTGGACTTGGTGACGCTGTATGCCCTCACCGCTCAGCCCCTGGGGAATTCTTCGATTCTGCTTTTTT
# What was measured:
# mi405 mature sequence = experiment: QPCR of mature mi405 (standard TaqMan cDNA synthesis) in HEK293 cells; format: cell-based, human; conditions: 24 h after transfection
# Description: TaqMan Gene Expression Assay. QRT-PCR was carried out to quantify the expression of pri-mir-675, mir-675-5p and mi405 using TaqMan probes (ThermoFisher Scientific). Experiments were started by eliminating genomic DNA from the RNA preparations, and then cDNA was generated using the High-Capacity cDNA Reverse Transcription Kit (Applied Biosystems) following manufacturer's instructions. Within the same cDNA reaction, 1×RT random hexamer primers were used to generate the cDNA for RPL13A, used as a reference gene, and for pri-mir-675. To generate the cDNA for mir-675, the RT mir-675 reverse primer provided by ThermoFisher Scientific was used. For mi405, the mi405 qPCR protocol was done as it was previously described [Wallace et al., Mol. Ther. Methods Clin. Dev. 8: 121-30 (2018)]. To quantify mir-675 and mi405 levels, RNA was extracted using the total RNA protocol for the mirVana miRNA Isolation Kit (Ambion) from HEK293 cells. cDNA was generated using the High-Capacity cDNA Reverse Transcription Kit (Applied Biosystems) using a mix of random hexamer primers and specific reverse primer for pri-mir-675 and mir-675-5p. For mi405, 200 nM of the stem-loop forming primer (5′-[…]-3′) (SEQ ID NO: 144) was also used for the RT step. A custom TaqMan assay (Applied Biosystems) including 1.5 μM of Forward primer (5′-[…]-3′) (SEQ ID NO: 145), 0.7 μM of Reverse primer (5′-GTGCAGGGTCCGAGGT-3′) (SEQ ID NO: 146), and 0.2 μM of mi405 probe (5′-6FAM-ATACGACGTCCAGGAT-3′) (SEQ ID NO: 147) was then run using the CFX Connect Real Time system apparatus (Bio-Rad). RPL13A (Mm02526700_g1; Applied Biosystems) served as the reference gene. The TaqMan gene expression assay consisted of using the TaqMan Gene Expression Master mix and TaqMan probes purchased from ThermoFisher Scientific. 1× of probe was mixed with 1× of the TaqMan Gene Expression Master mix (ThermoFisher Scientific), and with 20 ng of cDNA. The mir-675- and mi405-specific primers and probes were designed to quantify only the mir-675-5p and mi405 mature sequence (see TaqMan Gene Expression Master mix protocol).
# Apart from the effect on the inhibition efficiency of mi405, the effect of the flanking sequences on the expression of the miRNA also was tested. Therefore, the expression of the processed mature mi405 sequences was quantified using the standard and advanced TaqMan cDNA synthesis reaction. In the former reaction, a reverse primer detects the mature mi405 sequence following a stem-loop primer-based small RNA detection principle (ThermoFisher Scientific) (Jung et al., RNA (2013) 19: 1-10). The amplification and quantification steps were then performed using a standard TaqMan probe specific to mi405 that base pairs at the junction between the mi405 mature sequence and the reverse primer sequence (FIG. 6A). […] In the TaqMan advanced cDNA synthesis reaction, the mature sequence is extended through ligation of an adaptor sequence at the 5′ end and through the enzymatic addition of a polyA tail at the 3′ end of the mature mi405 sequence. The amplification and quantification steps were then performed using a TaqMan advanced probe specific to mi405 that normally base pairs with the 3′ end of the mature miRNA and with part of the adaptor sequence. Here, an additional TaqMan advanced probe (embedded probe) that only base pairs with the mature sequence of mi405 (FIG. 6B) was used. As a result, following TaqMan advanced cDNA synthesis reaction, droplet digital PCR (ddPCR) was performed to quantify mi405, mi405F, mi405B, mi405C, mi405G and mi405H expression levels. For this, TaqMan advanced embedded and overlapped mi405 probes (FIG. 6B) were used.
# DUX4 protein = experiment: Western blot of V5-tagged DUX4 protein in co-transfected HEK293 cells; format: cell-based, human; conditions: for reduction of DUX4 protein levels / reduction of DUX4 protein levels compared to U6.miGFP / reduction of DUX4 protein levels relative to U6.mi405 / Average inhibition efficiency (%) of DUX4 protein levels / reduction of DUX4 protein levels compared to U6.mi405F: HEK293; for reduction of DUX4 protein levels compared to U6.miGFP: DUX4:mi405 molar ratio 2 to 1; for reduction of DUX4 protein levels relative to U6.mi405 / reduction of DUX4 protein levels compared to U6.mi405F: molar ratio 12 to 1, N=4; for Average inhibition efficiency (%) of DUX4 protein levels: CMV.DUX4-FL/CMV.eGFP, molar ratio 1 to 3, eGFP normalizer, relative to U6-milacZ, N = 3-8; for effect on DUX4 protein level (DUX4-FL WT): FIG. 18, HEK293 western blot
Molecule,reduction of mature mi405 sequence expression relative to U6.mi405 (mi405 mature sequence; normalized to RPL13A),"increase of inhibition efficiency compared to U6.mi405 (western blot) (DUX4 protein; 1:4 DUX4:mi405 molar ratio, 24 h)","reduction of DUX4 protein levels (DUX4 protein; 1:4 DUX4:mi405 molar ratio, 24 h, normalized to miGFP, N=2)",reduction of DUX4 protein levels compared to U6.miGFP (DUX4 protein; 24 h),reduction of DUX4 protein levels relative to U6.mi405 (DUX4 protein; 24 h),"reduction of DUX4 protein levels (DUX4 protein; AAV.CMV.DUX4-FL co-transfection, 24 h, β-actin normalizer, relative to U6.milacZ)",Average inhibition efficiency (%) of DUX4 protein levels (DUX4 protein),effect on DUX4 protein level (DUX4-FL WT) (DUX4 protein),levels of mature mi405 sequence compared to U6.mi405 (mi405 mature sequence),reduction of DUX4 protein levels compared to U6.mi405F (DUX4 protein; 24 h)
B1,85±5%,20%,99±1%,81±9%,40±5%,,,,,
B2,,,,,,46±11%,43±4%,reduce DUX4 protein level,,
B3,,,,79±6%,60±8%,,,,greater or higher with the difference not being statistically significant,33±14%
B4,,,,88±2%,71±5%,,,,greater or higher with the difference not being statistically significant,52±9%
B5,,,,,,,68 ± 5 (N = 4) %,reduce DUX4 protein level,,
